Data reported in PMC11329700.

B1: GST-Dyn1xA-PRR (dynamin 1xA proline-rich region, amino acids 746-864) [rat] / Endophilin A1 [rat (endogenous in rat brain synaptosomes)] (parent)
chain 1: NTTTVSTPMPPPVDDSWLQVQSVPAGRRSPTSSPTPQRRAPAVPPARPGSRGPAPGPPPAGSALGGAPPVPSRPGASPDPFGPPPQVPSRPNRAPPGVPSRSGQASPSRPESPRPPFDL
chain 2: MSVAGLKKQFHKATQKVSEKVGGAEGTKLDDDFKEMERKVDVTSRAVMEIMTKTIEYLQPNPASRAKLSMINTMSKIRGQEKGPGYPQAEALLAEAMLKFGRELGDDCNFGPALGEVGEAMRELSEVKDSLDMEVKQNFIDPLQNLHDKDLREIQHHLKKLEGRRLDFDYKKKRQGKIPDEELRQALEKFDESKEIAESSMFNLLEMDIEQVSQLSALVQAQLEYHKQAVQILQQVTVRLEERIRQASSQPRREYQPKPRMSLEFATGDGTQPNGGLSHTGTPKPAGVQMDQPCCRALYDFEPENEGELGFKEGDIITLTNQIDENWYEGMLHGQSGFFPINYVEILVALPH
B2: GST-Dyn1xA-PRR (dynamin 1xA proline-rich region, amino acids 746-864) [rat] / Amphiphysin 1 [rat (endogenous in rat brain synaptosomes)] (parent)
chain 1: B1 chain 1
chain 2: MADIKTGIFAKNVQKRLNRAQEKVLQKLGKADETKDEQFEEYVQNFKRQEAEGTRLQRELRGYLAAIKGMQEASMKLTESLHEVYEPDWYGREDVKMVGEKCDVLWEDFHQKLVDGSLLTLDTYLGQFPDIKNRIAKRSRKLVDYDSARHHLEALQSSKRKDESRISKAEEEFQKAQKVFEEFNVDLQEELPSLWSRRVGFYVNTFKNVSSLEAKFHKEIAVLCHKLYEVMTKLGDQHADKAFSIQGAPSDSGPLRIAKTPSPPEEASPLPSPTASPNHTLAPASPAPVRPRSPSQTRKGPPVPPLPKVTPTKELQQENIINFFEDNFVPEINVTTPSQNEVLEVKKEETLLDLDFDPFKPDVTPAGSAAATHSPMSQTLPWDLWTTSTDLVQPASGGSFNDFTQPQDTSLFTMQTDQNMAETEQALPTEPQAEEPPTTAAAPTAGLDLGLEMEEPKEEAAIPPGTDAGETVGTEGSTGEEAEAEKAALPAGEGESPEGAKIDVESTELASSESPQAAELEAGAPQEKVIPSVVIEPASNHEGEEHQETTTGTETREATEDVAPQGPAGEKQELATEPTPLDSQAATPAPAGAVDASLSAGDAAQELPPGFLYKVETLHDFEAANSDELTLQRGDVVLVVPSDSEADQDAGWLVGVKESDWLQYRDLATYKGLFPENFTRHLE

Variants of: B1
Assay: GST pull-down, densitometric analysis of Western blots
Details: with Endophilin A1 [rat (endogenous in rat brain synaptosomes)]; parent: 100; read off a plot

Row | percent of parent [%] | Variant
1 | 31 | chain 1 S29E S33E
2 | 48 | chain 1 S106E S112E

Variants of: B2
Assay: as above
Details: with Amphiphysin 1 [rat (endogenous in rat brain synaptosomes)]; parent: 100; read off a plot

Row | percent of parent [%] | Variant
3 | 91 | chain 1 S106E S112E
4 | 98 | chain 1 S29E S33E
